From patent US20240425575A1 (SOTER BIOPHARMA PTE, published 2024)

T1: recombinant human ANG2 protein corresponding to Lys275-Phe496 of human ANG2 (human, UniProt O15123 275-496)
T1 construct: also called hANG2
T1 sequence: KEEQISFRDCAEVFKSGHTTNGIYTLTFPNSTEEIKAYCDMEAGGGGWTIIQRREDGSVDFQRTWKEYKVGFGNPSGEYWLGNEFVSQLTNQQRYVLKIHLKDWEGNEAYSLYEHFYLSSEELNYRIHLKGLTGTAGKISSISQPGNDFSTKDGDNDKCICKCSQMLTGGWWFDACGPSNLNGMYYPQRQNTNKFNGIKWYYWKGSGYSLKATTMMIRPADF


Target: T1, recombinant human ANG2 protein …
Experiment: ELISA, hANG2 coated, E. coli supernatant, anti-VHH-HRP
Protocol: Single colonies of TG1 host strains of the obtained ten strains of heavy-chain single-domain antibodies were selected, inoculated and cultured overnight. On the next day, the overnight strains were transferred, amplified, induced by 0.5 mM IPTG and cultured in a shaker overnight at 37° C. On the next day, centrifugation was performed to collect supernatant for detection.
An ELISA plate was separately coated with an hANG2 protein solution and BSA in […] and placed overnight at 4° C. Supernatant was discarded, and 300 μL blocking solution (PBS containing 3% BSA) was added to each well and blocked for 2 h at 37° C. Supernatant collected after centrifugation was added to wells of the ELISA plate in 200 μL per well and subjected to standing incubation for 2 h at room temperature, and supernatant was discarded. Washing was performed with PBST (PBS contained 0.1% Tween 20) in 200 μL/well three times. Diluted HRP-labeled anti-VHH secondary antibodies (Genscript, A01861) were added in a volume of 100 μL/well and incubated for 1 h at room temperature, wherein the secondary antibodies were used after dilution according to 1:10000 with a diluent of PBS containing 1% BSA. Washing was performed with PBST in 200 μL/well five times. A TMB color developing solution (BD, 55214) was added in 100 μL/well, and color developing was performed for 8 min at 37° C.2M HCl stopping solution was added in 100 μL/well. After the stopping solution was added, values at 450 nm were read with a microplate reader within 30 minutes.

Binder | OD Value Obtained after Binding to hANG2
B1-G3 (VHH, Tested as E. coli TG1 culture supernatant (phagemid pComb3XSS); also called anti-ANG2 heavy-chain single-domain antibody B1-G3) VHH: EVQVVESGGGLVQPGGSLRLSCVASMPSGISFSNRGMAWYRQAPGKQRELVAAIDSAGSTRYQDSVKGRFTISRDNAKNTVFLQMNSLKPEDTAVYYCNQPAFKAWGQGTQVTVSS | 1.57 OD 450 nm
B2-E2 (VHH, Tested as E. coli TG1 culture supernatant (phagemid pComb3XSS); also called anti-ANG2 heavy-chain single-domain antibody B2-E2) VHH: EVQLVESGGGLVQPGESLRLSCVASGFPSGFTFSDYQMYWYRQAPGKERELVAIISNDGLRKTYADSVKGRFTISRDNAKNTMFLQMNSLKPEDTAVYVCNVRRANRDDWGQGTQVTVSS | 1.96 OD 450 nm
B4-C11 (VHH, Tested as E. coli TG1 culture supernatant (phagemid pComb3XSS); also called anti-ANG2 heavy-chain single-domain antibody B4-C11) VHH: QVQLVESGGGLVQAGGSLRLSCAASGSTFSNVVAGWYRQAPGKQRELVAGISNIGDTRYADSVKGRFTISRDNAKKAVYLQMNSLKPEDTAVYYCYAKYWARDYWGQGTQVTVSS | 1.58 OD 450 nm
B3-H7 (VHH, Tested as E. coli TG1 culture supernatant (phagemid pComb3XSS); also called anti-ANG2 heavy-chain single-domain antibody B3-H7) VHH: EVQVVESGGGLVQAGGSLRLSCAASGSTAINSVAGWYRQAPGKQRELVAGISNIGDTRYADSVKGRFTISRDNAKKTVYLQMNSLKSEDTAVYYCYAKYWARDYWGQGTQVTVSS | 1.82 OD 450 nm
B1-H9 (VHH, Tested as E. coli TG1 culture supernatant (phagemid pComb3XSS); also called anti-ANG2 heavy-chain single-domain antibody B1-H9) VHH: EVQLVESGGDLVQAGGSLRLSCAASGSTFSSTIAGWYRQAPGKQRELVAGISNIGDTRYADSVKGRFTISRDNAKKTVYLQMNSLKPEDTAVYYCYAKYWARDYWGQGTQVTVSS | 1.5 OD 450 nm
B1-G8 (VHH, Tested as E. coli TG1 culture supernatant (phagemid pComb3XSS); also called anti-ANG2 heavy-chain single-domain antibody B1-G8) VHH: QVQLVESGGGLVQTGDSLRLSCVAPGISFSNRGMAWYRQAPGKQRELVAAIDSAGSQRYAGSVKDRFTISRDNAKNTVFLQMNSLKPEDTAVYYCNQPRFNLWGQGTQVTVSS | 2.02 OD 450 nm
B4-D3 (VHH, Tested as E. coli TG1 culture supernatant; also called anti-ANG2 heavy-chain single-domain antibody B4-D3) VHH: QLQLVESGGGLVQPGGSLRLSCVASGASGISFSNRGMAWYRQAPGKQRELVAAIDSAGSPAYAGSVKGRFTISRDNAKNTVFLQMNSLKPEDTAVYYCNQPRFNLWGLGTQVTVSS | 1.68 OD 450 nm
B2-F10 (VHH, Tested as E. coli TG1 culture supernatant (phagemid pComb3XSS); also called anti-ANG2 heavy-chain single-domain antibody B2-F10) VHH: QVQLVESGGGLVQAGGSLRLSCGASGSAVSITLMAWYRQAPGKQRELVAGISNIGDTNYVDSVKDRFTISRINAKNAMYLQMNSLKPEDTAVYYCFAQDWGGHHYWGQGTQVTVSS | 2.06 OD 450 nm
B3-C11 (VHH, Tested as E. coli TG1 culture supernatant (phagemid pComb3XSS); also called anti-ANG2 heavy-chain single-domain antibody B3-C11) VHH: EVQLVESGGGLVQAGGSLRLSCFVSGSTFSASLMGWYRQAPGKERELVAGISNIGNTVYADSAKGRFTISRDGAKNTVHLQMNALKPEDTAVYYCYATVPRAAWGQGTQVTVSS | 1.63 OD 450 nm
B2-A6 (VHH, Tested as E. coli TG1 culture supernatant (phagemid pComb3XSS); also called anti-ANG2 heavy-chain single-domain antibody B2-A6) VHH: QLQLVESGGGLVQAGGSLRLSCFVSGSTFSASLMGWYRQAPGKERELVAGISNIGNTVYADSAKGRFTISRDGAKNTVHLQMNALKPEDTAVYYCYATVPRAAWGQGTQVTVSS | 2.39 OD 450 nm
